B1: Antibody 4 (antibody, V domains shown)
VH: QVQLQESGPGLLKPSETLSLTCAVSDYSISSGYYWGWIRQPPGKGLEWIGSIYHSGNTYYNPSLKSRVTILVDTSKNQFSLKLSSVTAADTAVYYCARDKCSTTTCSFDYWGQGTLVTVSS
VL: DIQMTQSPSSLSASVGDRVTITCQASQDFSNYLNWYQQKPGKAPKLLIYAASNLETGVPSRFSGSGSGTDFTFTISSLQPEDIAVYYCQQYDNLPYTFGQGTKLEIK
B2: Antibody 28 (antibody, V domains shown)
VH: QVQLQESGPGLVKPSGTLSLTCAVSGGSISSSNWWSWVRQPPGKGLEWIGEIYHSGSTNYNPSLKSRVTISVDKSKNQFSLKLSSVTAADTAVYYCARRGIWFGVGPWGQGTLVTVSS
VL: DIVMTQSPLSLPVTPGEPASISCRSSQSLLHGNGFNYLDWYLQKPGQSPQLLIYLGSNRASGVPDRFTGSGSGTDFTLKISRVEAEDVGVYYCMQGLQTPRTFGQGTKVEIK
B3: Antibody 11 (antibody, V domains shown)
VH: EVQLVESGGGLVQPGGSLRLSCAASGFTFSSYWMHWVRQAPGKGLVWVSRIHNDGSRTSYADSVKGRFTISRDNAKNTLYLQMSSLRAEDTAVYYCTRDPPPYDILTGYPFDYWGQGTLVTVSS
VL: DIQMTQSPSSVSASVGDRVTITCRASQDISSWLAWFQQKPGKAPKLLIYGASSLQSGVPSRFSGSGSGTDFTLTISSLQPEDFATYYCQEANSFPYTFGQGTKLEIK

Key:
[1] = molecular target: human SIRPα on hSIRPα-expressing cells (human) (UniProt P78324); test: flow cytometry, stably transfected CHO cells, antibody titrated, labelled anti-rat or anti-mouse IgG, MFI
[2] = molecular target: human SIRPα on hSIRPα-expressing cells (human) (UniProt P78324); test: flow cytometry, stably transfected CHO cells, antibody titrated, labelled anti-human IgG, MFI

Binder	EC50 (read off the curve) [1] [µg/mL]	EC50 (read off the curve) [2] [µg/mL]
B1	1	
B2		0.2
B3	0.1	
